According to paper PMC9482650, “Quantitative fragmentomics allow affinity mapping of interactomes” (Nature Communications, 2022):

Experiments:
Test in all cases: holdup assay
Set-up in all cases: key: below the threshold = too weak to quantify, mostly under pKd 3.1 to 4
USH1C_2, Q9Y6N9 = biological target: T1, USH1C_2, Q9Y6N9
T1 sequence (Q9Y6N9 206-303, limits assumed, looked up): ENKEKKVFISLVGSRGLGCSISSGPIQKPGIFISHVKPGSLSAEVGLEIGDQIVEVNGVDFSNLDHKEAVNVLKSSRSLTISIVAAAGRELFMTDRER

GIPC1, O14908 = biological target: T2, GIPC1, O14908
T2 sequence (O14908 128-223, limits assumed, looked up): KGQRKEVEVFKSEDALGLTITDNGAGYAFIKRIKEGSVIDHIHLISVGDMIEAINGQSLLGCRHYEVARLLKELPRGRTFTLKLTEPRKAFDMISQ

PDZD2_1, O15018 = biological target: T3, PDZD2_1, O15018
T3 sequence (O15018 80-192, limits assumed, looked up): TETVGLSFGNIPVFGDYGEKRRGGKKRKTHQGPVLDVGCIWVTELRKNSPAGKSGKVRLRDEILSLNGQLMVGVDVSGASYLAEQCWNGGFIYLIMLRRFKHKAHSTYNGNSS

MAGI3_6, Q5TCQ9 = biological target: MAGI3_6, Q5TCQ9
Sequence of MAGI3_6, Q5TCQ9 (Q5TCQ9 1014-1103): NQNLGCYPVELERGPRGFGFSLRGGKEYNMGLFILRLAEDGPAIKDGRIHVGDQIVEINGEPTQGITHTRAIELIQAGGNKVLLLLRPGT

PDZD2_3, O15018 = biological target: T4, PDZD2_3, O15018
T4 sequence (O15018 581-682, limits assumed, looked up): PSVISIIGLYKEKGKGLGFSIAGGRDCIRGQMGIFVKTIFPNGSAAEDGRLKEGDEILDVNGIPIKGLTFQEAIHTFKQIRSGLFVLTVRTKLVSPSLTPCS

PDZD2_6, O15018 = biological target: T5, PDZD2_6, O15018
T5 sequence (O15018 2745-2839, limits assumed, looked up): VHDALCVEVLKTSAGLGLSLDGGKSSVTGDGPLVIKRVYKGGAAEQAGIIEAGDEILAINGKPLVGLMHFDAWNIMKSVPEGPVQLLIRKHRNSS

MPDZ_2, O75970 = biological target: T6, MPDZ_2, O75970
T6 sequence (O75970 252-347, limits assumed, looked up): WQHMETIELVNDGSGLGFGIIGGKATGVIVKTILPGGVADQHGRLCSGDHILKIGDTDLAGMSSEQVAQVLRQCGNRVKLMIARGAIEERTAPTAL

PDZD7_1, Q9H5P4 = biological target: T7, PDZD7_1, Q9H5P4
T7 sequence (Q9H5P4 81-178, limits assumed, looked up): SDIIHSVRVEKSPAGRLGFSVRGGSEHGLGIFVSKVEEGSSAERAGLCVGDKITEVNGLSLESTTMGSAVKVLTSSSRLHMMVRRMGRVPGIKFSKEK

PTPN13_5, Q12923 = biological target: T8, PTPN13_5, Q12923
T8 sequence (Q12923 1877-1975, limits assumed, looked up): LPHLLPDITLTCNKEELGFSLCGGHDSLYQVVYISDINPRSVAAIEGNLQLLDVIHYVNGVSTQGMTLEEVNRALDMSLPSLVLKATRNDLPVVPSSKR

MAGIX, Q9H6Y5 = biological target: MAGIX, Q9H6Y5
Sequence of MAGIX, Q9H6Y5 (Q9H6Y5 118-211): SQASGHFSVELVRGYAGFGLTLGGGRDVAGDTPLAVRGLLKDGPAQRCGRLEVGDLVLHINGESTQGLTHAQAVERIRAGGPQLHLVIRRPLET

SHROOM3, Q8TF72 = biological target: T9, SHROOM3, Q8TF72
T9 sequence (Q8TF72 20-120, limits assumed, looked up): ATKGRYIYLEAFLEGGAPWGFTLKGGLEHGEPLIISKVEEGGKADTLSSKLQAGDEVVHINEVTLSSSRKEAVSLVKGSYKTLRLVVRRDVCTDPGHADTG

USH1C_1, Q9Y6N9 = biological target: T10, USH1C_1, Q9Y6N9
T10 sequence (Q9Y6N9 82-179, limits assumed, looked up): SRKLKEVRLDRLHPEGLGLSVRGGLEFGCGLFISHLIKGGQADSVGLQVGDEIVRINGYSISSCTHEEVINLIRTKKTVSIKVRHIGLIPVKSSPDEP

LMO7, Q8WWI1 = biological target: LMO7, Q8WWI1
Sequence of LMO7, Q8WWI1 (Q8WWI1 1037-1138): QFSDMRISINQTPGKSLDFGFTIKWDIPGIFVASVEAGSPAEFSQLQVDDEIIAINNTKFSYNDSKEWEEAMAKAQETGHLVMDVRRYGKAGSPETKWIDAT

AHNAK2, Q8IVF2 = biological target: AHNAK2, Q8IVF2
Sequence of AHNAK2, Q8IVF2 (Q8IVF2 108-193): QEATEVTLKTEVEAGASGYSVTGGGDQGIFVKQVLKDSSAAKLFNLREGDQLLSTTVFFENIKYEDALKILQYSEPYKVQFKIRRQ

GRIP2_4, Q9C0E4 = biological target: GRIP2_4, Q9C0E4
Sequence of GRIP2_4, Q9C0E4 (Q9C0E4 446-548): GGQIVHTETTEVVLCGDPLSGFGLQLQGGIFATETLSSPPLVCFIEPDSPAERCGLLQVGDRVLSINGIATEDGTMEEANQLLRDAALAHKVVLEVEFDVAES

NHERF2_1, Q15599 = biological target: NHERF2_1, Q15599
Sequence of NHERF2_1, Q15599 (Q15599 9-91): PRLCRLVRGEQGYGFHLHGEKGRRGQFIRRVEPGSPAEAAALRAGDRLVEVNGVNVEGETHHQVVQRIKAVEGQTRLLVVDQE

TJP1_1, Q07157 = biological target: TJP1_1, Q07157
Sequence of TJP1_1, Q07157 (Q07157 18-120): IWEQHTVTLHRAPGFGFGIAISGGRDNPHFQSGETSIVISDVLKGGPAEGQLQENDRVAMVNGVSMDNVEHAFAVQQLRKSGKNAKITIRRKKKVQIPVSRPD

MAGI3_5, Q5TCQ9 = biological target: MAGI3_5, Q5TCQ9
Sequence of MAGI3_5, Q5TCQ9 (Q5TCQ9 847-941): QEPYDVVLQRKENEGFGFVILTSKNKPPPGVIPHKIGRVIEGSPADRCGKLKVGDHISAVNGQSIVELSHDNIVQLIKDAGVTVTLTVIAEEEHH

MAST1, Q9Y2H9 = biological target: MAST1, Q9Y2H9
Sequence of MAST1, Q9Y2H9 (Q9Y2H9 962-1065): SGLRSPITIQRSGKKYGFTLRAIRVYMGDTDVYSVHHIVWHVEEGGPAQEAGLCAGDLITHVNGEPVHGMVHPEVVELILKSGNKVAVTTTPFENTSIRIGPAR

PDZRN4_2, Q6ZMN7 = biological target: PDZRN4_2, Q6ZMN7
Sequence of PDZRN4_2, Q6ZMN7 (Q6ZMN7 389-498): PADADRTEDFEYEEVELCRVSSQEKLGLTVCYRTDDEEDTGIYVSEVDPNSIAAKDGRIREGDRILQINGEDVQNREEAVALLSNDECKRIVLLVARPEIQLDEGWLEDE

IL16_2, Q14005 = biological target: IL16_2, Q14005
Sequence of IL16_2, Q14005 (Q14005 350-450): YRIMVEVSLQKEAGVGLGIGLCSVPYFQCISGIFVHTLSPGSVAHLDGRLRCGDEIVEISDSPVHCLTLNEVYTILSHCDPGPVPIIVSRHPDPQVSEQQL

PDZRN3_2, Q9UPQ7 = biological target: T11, PDZRN3_2, Q9UPQ7
T11 sequence (Q9UPQ7 414-513, limits assumed, looked up): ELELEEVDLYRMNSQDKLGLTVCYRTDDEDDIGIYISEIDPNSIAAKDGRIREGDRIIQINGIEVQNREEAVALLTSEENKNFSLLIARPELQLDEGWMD

MPDZ_3, O75970 = biological target: T12, MPDZ_3, O75970
T12 sequence (O75970 372-473, limits assumed, looked up): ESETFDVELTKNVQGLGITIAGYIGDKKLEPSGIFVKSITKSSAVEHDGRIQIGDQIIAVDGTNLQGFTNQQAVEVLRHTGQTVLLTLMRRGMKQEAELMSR

MAGI2_1, Q86UL8 = biological target: T13, MAGI2_1, Q86UL8
T13 sequence (Q86UL8 12-111, limits assumed, looked up): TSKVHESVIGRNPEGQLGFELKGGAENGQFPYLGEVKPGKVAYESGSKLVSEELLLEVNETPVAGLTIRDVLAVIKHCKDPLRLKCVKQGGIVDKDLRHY

[1] = plain residues with an end cap or a label only (N-terminal biotin on a linker: ttds)
[2] = plain residues with an end cap or a label only (N-terminal biotin on a linker: none)

## HRTCYLVTQL [ASIC3, Q9UHC3]
USH1C_2, Q9Y6N9; [1]
  pKd: below the threshold
GIPC1, O14908; [1]
  pKd: below the threshold
PDZD2_1, O15018; [1]
  pKd: below the threshold
MAGI3_6, Q5TCQ9; [1]
  pKd: below the threshold
PDZD2_3, O15018; [1]
  pKd: below the threshold
PDZD2_6, O15018; [1]
  pKd: below the threshold
MPDZ_2, O75970; [1]
  pKd: below the threshold
PDZD7_1, Q9H5P4; [1]
  pKd: below the threshold
PTPN13_5, Q12923; [1]
  pKd: below the threshold
MAGIX, Q9H6Y5; [1]
  pKd: below the threshold
SHROOM3, Q8TF72; [1]
  pKd: below the threshold
USH1C_1, Q9Y6N9; [1]
  pKd: below the threshold
LMO7, Q8WWI1; [1]
  pKd: below the threshold
AHNAK2, Q8IVF2; [1]
  pKd: below the threshold
GRIP2_4, Q9C0E4; [1]
  pKd: below the threshold
NHERF2_1, Q15599; [1]
  pKd: 4.56
TJP1_1, Q07157; [1]
  pKd: 4.17
MAGI3_5, Q5TCQ9; [1]
  pKd: 4.64
MAST1, Q9Y2H9; [1]
  pKd: 4
PDZRN4_2, Q6ZMN7; [1]
  pKd: below the threshold
IL16_2, Q14005; [1]
  pKd: below the threshold
PDZRN3_2, Q9UPQ7; [1]
  pKd: below the threshold
MPDZ_3, O75970; [1]
  pKd: 4.04
MAGI2_1, Q86UL8; [1]
  pKd: 4.01

## RTRQRNETQV [HPV51-E6, P26554]
USH1C_2, Q9Y6N9; [1]
  pKd: below the threshold
GIPC1, O14908; [1]
  pKd: 5.1
PDZD2_1, O15018; [1]
  pKd: below the threshold
MAGI3_6, Q5TCQ9; [1]
  pKd: below the threshold
PDZD2_3, O15018; [1]
  pKd: 4.22
PDZD2_6, O15018; [1]
  pKd: below the threshold
MPDZ_2, O75970; [1]
  pKd: below the threshold
PDZD7_1, Q9H5P4; [1]
  pKd: below the threshold
PTPN13_5, Q12923; [1]
  pKd: below the threshold
MAGIX, Q9H6Y5; [1]
  pKd: below the threshold
SHROOM3, Q8TF72; [1]
  pKd: below the threshold
USH1C_1, Q9Y6N9; [1]
  pKd: below the threshold
LMO7, Q8WWI1; [1]
  pKd: below the threshold
AHNAK2, Q8IVF2; [1]
  pKd: below the threshold
GRIP2_4, Q9C0E4; [1]
  pKd: below the threshold
NHERF2_1, Q15599; [1]
  pKd: below the threshold
TJP1_1, Q07157; [1]
  pKd: below the threshold
MAGI3_5, Q5TCQ9; [1]
  pKd: below the threshold
MAST1, Q9Y2H9; [1]
  pKd: 4.23
PDZRN4_2, Q6ZMN7; [1]
  pKd: below the threshold
IL16_2, Q14005; [1]
  pKd: below the threshold
PDZRN3_2, Q9UPQ7; [1]
  pKd: 4.16
MPDZ_3, O75970; [1]
  pKd: below the threshold
MAGI2_1, Q86UL8; [1]
  pKd: below the threshold

## DSKPPLPPDEWV [MERS-E, K9N5R3]
USH1C_2, Q9Y6N9; [2]
  pKd: below the threshold
GIPC1, O14908; [2]
  pKd: below the threshold
PDZD2_1, O15018; [2]
  pKd: below the threshold
MAGI3_6, Q5TCQ9; [2]
  pKd: 4.03
PDZD2_3, O15018; [2]
  pKd: 3.89
PDZD2_6, O15018; [2]
  pKd: below the threshold
MPDZ_2, O75970; [2]
  pKd: below the threshold
PDZD7_1, Q9H5P4; [2]
  pKd: below the threshold
PTPN13_5, Q12923; [2]
  pKd: below the threshold
MAGIX, Q9H6Y5; [2]
  pKd: below the threshold
SHROOM3, Q8TF72; [2]
  pKd: below the threshold
USH1C_1, Q9Y6N9; [2]
  pKd: below the threshold
LMO7, Q8WWI1; [2]
  pKd: below the threshold
AHNAK2, Q8IVF2; [2]
  pKd: below the threshold
GRIP2_4, Q9C0E4; [2]
  pKd: below the threshold
NHERF2_1, Q15599; [2]
  pKd: below the threshold
TJP1_1, Q07157; [2]
  pKd: below the threshold
MAGI3_5, Q5TCQ9; [2]
  pKd: below the threshold
MAST1, Q9Y2H9; [2]
  pKd: 3.91
PDZRN4_2, Q6ZMN7; [2]
  pKd: 3.75
IL16_2, Q14005; [2]
  pKd: below the threshold
PDZRN3_2, Q9UPQ7; [2]
  pKd: below the threshold
MPDZ_3, O75970; [2]
  pKd: below the threshold
MAGI2_1, Q86UL8; [2]
  pKd: below the threshold
